Results on five molecules are retold here after patent US20040228866A1, “Suppressor genes” (Ludwig Institute for Cancer Research, priority 2000, published 2004).

Assay [1] relates to rat embryo fibroblasts (REFs). In words: Transformation of rat embryo fibroblasts with E7. It counts as cell-based. As to conditions: co-transfected with E7, FIG. 10A.
Another assay deals with Saos-2 cells. Kind of assay: Apoptosis by flow cytometry (CD20-gated, sub-G1 DNA content) in transfected Saos-2 cells. It counts as cell-based. The procedure:
Apoptosis was identified by the expression of the co-transfected cell surface marker CD20, as described in Samuels-Lev et al. (Mol. Cell 8:781-94, 2001, herein incorporated by reference).
The number of apoptotic cells was determined using the methods described in Example 6.
Cells (10^6) were plated 24-48 hours prior to transfection in 10 cm plates. Cells were grown in DMEM supplemented with 10% FCS and transfected with 2 μg of a plasmid expressing CD20 as a transfection marker. Increasing amounts of ASPP1 and ASPP2 were transfected (7.5 μg, 15 μg and 25 μg). 36 hours after the transfection, both attached and floating cells were harvested and analysed using flow cytometry as follows. The transfected cells were gated based on the expression of CD20. The percentage of apoptotic cells was measured by the accumulation of cells with a sub-G1 DNA content derived from at least three individual experiments.
The transfected cells were analyzed by flow cytometry as described in Example 6.
(In flow cytometry, cells or beads pass a laser one at a time.)

For the next assay, the system named is U2OS and MCF7 cells. In words: Apoptosis by FACS in U2OS and MCF7 cells expressing wild-type p53, with or without cisplatin. The format is cell-based, human. The following applies: for effect on cisplatin-induced apoptosis: transfected before cisplatin, FIGS. 7B and 7D. The procedure:
The transfected cells were gated, and the apoptotic cells identified by FACS as described in Example 6.
Before exposure to cisplatin (5 and 3 μg/ml respectively), U2OS and MCF7 cells were transfected with plasmids encoding HPV16 E6, iASPP, or 53BP2. Thirty hours later, cells were harvested and analysed as above.
Fragments from the 5′ ends of ASPP1, ASPP2 and iASPP cDNA were cloned into a mammalian expression vector in an antisense orientation and their ability to inhibit the protein synthesis determined in vitro. The antisense nucleic acid molecules were amplified by PCR on the respective plasmid clones using primers spanning the following nucleotide regions (relative to the initial ATG): −74 to 923; −253 to 839 and −37 to 536 for ASPP1, ASPP2 and iASPP respectively. The amplified segments were purified with the QIAquick PCR purification kit (QIAGEN) and ligated in the pcDNA3.1/V5-His TOPO vector (Invitrogen) according to the manufacturer's instructions.
U2OS and MCF-7 cells were transfected with the various expression plasmids prior to the treatment with cisplatin and analyzed using FACS as described above.
To determine the anti-apoptotic role of iASPP, both U2OS and MCF-7 cells were transfected with antisense iASPP and cells analyzed as described above. […] A small increase in apoptotic cells was consistently detected (FIG. 7D).

Assay [2] addresses T1, p53 (Homo sapiens, UniProt P04637).
T1 construct: expressed in transfected cells
In words: Transient luciferase reporter assay of p53 transactivation function in Saos-2 cells. The format is cell-based. As to conditions: for effect on ASPP stimulation of p53 transactivation function on the Bax promoter: co-expressed with p53 and ASPP1 or ASPP2. The procedure: (§1) The amount of luciferase expression was determined as previously described in Samuels-Lev et al. (Mol. Cell 8:781-94, 2001, herein incorporated by reference).
(§2) The amount of transactivation function was determined as described in Example 4.
(§3) To determine the amount of protein expression, Saos-2 cells (5×10^5) were plated 24 hours prior to transfection in 6 cm dishes. […] To determine the amount of gene activation, after transfection, the cells were lysed in Reporter Lysis Buffer 16-24 hours post-wash and assayed using the Luciferase Assay kit (Promega, Wis.). The fold activation of a particular reporter was determined by the activity of the transfected plasmid above the activity of vector alone.
(§4) The expression level of transfected proteins was detected using 40 μg of the respective lysates using the antibodies V5, DX.5410, DO1, 4A4 and p73. […] Results were derived from at least three independent experiments.

In the next assay the test system is MCF-7 cells. Kind of assay: Cellular resistance to the cytotoxic effect of cisplatin in MCF-7 cells. It counts as cell-based, human. As to conditions: iASPP-expressing versus non-expressing cells, FIG. 10B. The text has this: Many chemotherapy drugs are DNA-damage agents and induce apoptosis via p53-dependent pathway. […] The cellular resistance to the cytotoxic effect of cisplatin were compared between iASPP-expressing and non-expressing iASPP MCF-7 cells. Expression of iASPP enhanced the cellular resistance by about 2.5 fold (FIG. 10B). Such an increase in cellular resistance to cisplatin is significant with respect to cancer treatment.

The target of assay [3] is T1, p53. Kind of assay: Co-immunoprecipitation with p53 in transfected Saos-2 cells. It counts as binding. As for the experimental part:
The cells were lysed in NP40 lysis buffer and 1000 μg of lysate immunoprecipitated with antibodies to iASPP bound to Protein G beads.

For assay [4], the system named is p53. In words: Transient luciferase reporter assay of p53 transactivation function in Saos-2 cells. The following applies: expressed without p53, FIG. 8B. The format is cell-based. As for the experimental part:
as §1, §2, §3, §4
(In a reporter assay the amount or activity of a reporter protein is the signal.)

T1 sequence (P04637 whole entry): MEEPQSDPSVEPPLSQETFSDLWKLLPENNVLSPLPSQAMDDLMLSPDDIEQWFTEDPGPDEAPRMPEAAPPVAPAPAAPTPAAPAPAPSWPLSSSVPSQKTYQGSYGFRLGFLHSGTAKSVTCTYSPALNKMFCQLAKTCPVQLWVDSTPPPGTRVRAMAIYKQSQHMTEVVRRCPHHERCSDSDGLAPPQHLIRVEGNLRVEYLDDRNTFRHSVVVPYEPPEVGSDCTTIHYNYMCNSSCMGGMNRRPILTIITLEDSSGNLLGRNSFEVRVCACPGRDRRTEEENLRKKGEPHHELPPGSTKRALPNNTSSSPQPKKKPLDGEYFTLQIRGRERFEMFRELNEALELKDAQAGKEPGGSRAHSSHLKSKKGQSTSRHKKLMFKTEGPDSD

B1: iASPP: Inhibitor of Apoptosis Stimulating Proteins, p65 rel A binding protein of 315 amino acids, SEQ ID NO: 6 (protein)
chain: MWMKDPVARPLSPTRLQPALPPEAQSVPELEEVARVLAEIPRPLKRRGSMEQAPAVALPPTHKKQYQQIISRLFHRHGGPGPGGRSQSCPPSLRDLRPGQGPLLLPHQLPFHRPAPSQSSPPEQPQSMEMRSVLRKAGSPRKARRARLNPLVLLLDAALTGELEVVQQAVKEMNDPSQPNEEGITALHNAICGANYSIVDFLITAGANVNSPDSHGWTPLHCAASCNDTVICMALVQHGAAIFATTLSDGATAFEKCDPYREGYADCATYLADVEQSMGLMNSGAVYALWDYSAEFGDELSFREGESVTVLRRDGPEETDWWWAALHGQEGYVPRNYFGLFPRVKPQRSKV
modifications: homo sapiens
For the molecule B1, the “transforming function of E7” value in assay [1] is given as “enhanced the transforming function of E7 significantly”. For the same molecule, in the assay on Saos-2 cells (co-expressed with p53), the “effect on the apoptotic function of wild type p53” value is given as “small inhibitory effect”. For the same molecule, the “effect on the enhancement of p53 apoptotic function by ASPP1 and ASPP2” value with Saos-2 cells (co-expressed with p53 and ASPP1 or ASPP2) is given as “decreased or inhibited the enhanced apoptotic function of p53”. The “apoptosis when expressed alone” value with Saos-2 cells (no p53 co-expressed) is on record as “did not induce apoptosis on its own”. Also, the “effect on cisplatin-induced apoptosis” value in the assay with U2OS and MCF7 cells is reported as “inhibited cisplatin-induced apoptosis to a similar extent as E6”. The “effect on ASPP stimulation of p53 transactivation function on the Bax promoter” value (shortened to “effect on ASPP stimulation”) in the assay with p53 [2] is listed as “decreased or eliminated the ability”. In addition, the “enhancement of cellular resistance to cisplatin” value in the assay with MCF-7 cells is on record as “about 2.5 fold”. Moreover, the “interaction with p53 by immunoprecipitation and western blot” value with p53 [3] is listed as “interacted with p53”.

B2: ASPP2/53BP2: 528 amino acid C-terminal polypeptide, amino acids 600-1128 of ASPP2 (protein)
chain: KPQTVAASSIYSMYTQQQAPGKNFQQAVQSALTKTHTRGPHFSSVYGKPVIAAAQNQQQHPENIYSNSQGKPGSPEPETEPVSSVQENHENERIPRPLSPTKLLPFLSNPYRNQSDADLEALRKKLSNAPRPLKKRSSITEPEGPNGPNIQKLLYQRTTIAAMETISVPSYPSKSASVTASSESPVEIQNPYLHVEPEKEVVSLVPESLSPEDVGNASTENSDMPAPSPGLDYEPEGVPDNSPNLQNNPEEPNPEAPHVLDVYLEEYPPYPPPPYPSGEPEGPGEDSVSMRPPEITGQVSLPPGKRTNLRKTGSERIAHGMRVKFNPLALLLDSSLEGEFDLVQRIIYEVDDPSLPNDEGITALHNAVCAGHTEIVKFLVQFGVNVNAADSDGWTPLHCAASCNNVQVCKFLVESGAAVFAMTYSDMQTAADKCEEMEEGYTQCSQFLYGVQEKMGIMNKGVIYALWDYEPQNDDELPMKEGDCMTIIHREDEDEIEWWWARLNDKEGYVPRNLLGLYPRIKPRQRSLA
modifications: left off: small tags and cut ends
notes: 528 amino acid C-terminal polypeptide, amino acids 600-1128 of ASPP2
With B2, the apoptotic cells in the assay on Saos-2 cells (p53, ASPP2 and ASPP2/53BP2 all co-expressed, FIG. 4C) worked out at 30%. Moreover, the “effect on cisplatin-induced apoptosis” value in the assay on U2OS and MCF7 cells is recorded as “inhibited cisplatin-induced apoptosis to a similar extent as E6”. Moreover, the “reduction of the transactivation function of p53” value in the assay with p53 [2] (co-expressed with p53, FIG. 3) is given as “about 50%”. Besides, the “effect on ASPP stimulation” value in the assay with p53 [2] is “inhibited ASPP2 stimulation”. In the assay with p53 [2] (co-expression with p53), the “stimulation of p21waf1 and PG synthetic promoters” value was “slight stimulation”; the “stimulation of the promoter activity of mdm2 and cyclin G” value was “failed to stimulate”.

B3: ASPP2/bBP2: 1005 amino acid polypeptide, amino acids 123-1128 of ASPP2 (protein)
chain: RMDLTLAELQEMASRQQQQIEAQQQLLATKEQRLKFLKQQDQRQQQQVAEQEKLKRLKEIAENQEAKLKKVRALKGHVEQKRLSNGKLVEEIEQMNNLFQQKQRELVLAVSKVEELTRQLEMLKNGRIDSHHDNQSAVAELDRLYKELQLRNKLNQEQNAKLQQQRECLNKRNSEVAVMDKRVNELRDRLWKKKAALQQKENLPVSSDGNLPQQAASAPSRVAAVGPYIQSSTMPRMPSRPELLVKPALPDGSLVIQASEGPMKIQTLPNMRSGAASQTKGSKIHPVGPDWSPSNADLFPSQGSASVPQSTGNALDQVDDGEVPLREKEKKVRPFSMFDAVDQSNAPPSFGTLRKNQSSEDILRDAQVANKNVAKVPPPVPTKPKQINLPYFGQTNQPPSDIKPDGSSQQLSTVVPSMGTKPKPAGQQPRVLLSPSIPSVGQDQTLSPGSKQESPPAAAVRPFTPQPSKDTLLPPFRKPQTVAASSIYSMYTQQQAPGKNFQQAVQSALTKTHTRGPHFSSVYGKPVIAAAQNQQQHPENIYSNSQGKPGSPEPETEPVSSVQENHENERIPRPLSPTKLLPFLSNPYRNQSDADLEALRKKLSNAPRPLKKRSSITEPEGPNGPNIQKLLYQRTTIAAMETISVPSYPSKSASVTASSESPVEIQNPYLHVEPEKEVVSLVPESLSPEDVGNASTENSDMPAPSPGLDYEPEGVPDNSPNLQNNPEEPNPEAPHVLDVYLEEYPPYPPPPYPSGEPEGPGEDSVSMRPPEITGQVSLPPGKRTNLRKTGSERIAHGMRVKFNPLALLLDSSLEGEFDLVQRIIYEVDDPSLPNDEGITALHNAVCAGHTEIVKFLVQFGVNVNAADSDGWTPLHCAASCNNVQVCKFLVESGAAVFAMTYSDMQTAADKCEEMEEGYTQCSQFLYGVQEKMGIMNKGVIYALWDYEPQNDDELPMKEGDCMTIIHREDEDEIEWWWARLNDKEGYVPRNLLGLYPRIKPRQRSLA
B3: in the assay with p53 [2] (versions of ASPP2 co-expressed with p53, FIG. 3), the “stimulation of the transactivation function of p53” value is “about 2 fold”. Further, in the assay with p53 [3], the “interaction with p53 by immunoprecipitation and western blot” value is “interacted with p53 in vivo”.

B4: E6: viral oncoprotein from human papilloma virus that binds p53 and targets it for degradation (protein, UniProt P03126 1-158, looked up)
Protein E6: MHQKRTAMFQDPQERPRKLPQLCTELQTTIHDIILECVYCKQQLLRREVYDFAFRDLCIVYRDGNPYAVCDKCLKFYSKISEYRHYCYSLYGTTLEQQYNKPLCDLLIRCINCQKPLCPEEKQRHLDKKQRFHNIRGRWTGRCMSCCRSSRTRRETQL
As to B4, the “percentage of transfected cells that die of apoptosis after cisplatin” value with U2OS and MCF7 cells (cisplatin 5 and 3 μg/ml (U2OS, MCF7), thirty hours) is listed as “below 15%”. The “effect on apoptosis induced by ASPP1 or ASPP2” value with U2OS and MCF7 cells (co-expression) is on record as “inhibited the apoptosis induced by ASPP1 or ASPP2”. Moreover, the “effect on cisplatin-induced apoptosis” value in the assay with U2OS and MCF7 cells was “reduced the percentage of apoptotic cells to half”.

B5: Ikb: the inhibitor of p65 Rel A (protein, UniProt P25963 1-317, looked up)
NF-kappa-B inhibitor alpha: MFQAAERPQEWAMEGPRDGLKKERLLDDRHDSGLDSMKDEEYEQMVKELQEIRLEPQEVPRGSEPWKQQLTEDGDSFLHLAIIHEEKALTMEVIRQVKGDLAFLNFQNNLQQTPLHLAVITNQPEIAEALLGAGCDPELRDFRGNTPLHLACEQGCLASVGVLTQSCTTPHLHSILKATNYNGHTCLHLASIHGYLGIVELLVSLGADVNAQEPCNGRTALHLAVDLQNPDLVSLLLKCGADVNRVTYQGYSPYQLTWGRPSTRIQQQLGQLTLENLQMLPESEDEESYDTESEFTEFTEDELPYDDCVFGGQRLTL
With B5, the “percentage of apoptotic cells, co-expressed with p53 and ASPP2” value in the assay with Saos-2 cells (Example 11, p53+ASPP2 30%) was determined as 16%. Also, the “percentage of apoptotic cells, co-expressed with p53” value in the assay with Saos-2 cells (Example 11, p53 alone […]%) amounted to 11%. For the same molecule, in the assay with Saos-2 cells (Example 11, vector alone 4.6%), the “percentage of apoptotic cells, expressed alone” value is 7.2%. Further, in the assay with p53 [2] (50 ng co-expressed with p53), the “inhibition of the transactivation function of p53 on the Bax promoter” value is on record as “very little inhibition”. In addition, the “transactivation function of p53 on the mdm2 promoter” value in the assay with p53 [2] (FIG. 8C, Ikb even in the presence of ASPP2) is given as “hardly decreased”. Moreover, the “effect on ASPP stimulation” value with p53 [2] is recorded as “significantly decreased ASPP2-mediated stimulation”. Besides, the “inhibition of Bax promoter reporter activity” value in the assay with p53 [4] was “did not show any detectable inhibition”.
